In US20200024360A1 (Janssen / Centocor, published 2020):
Substitutions are numbered along the chain they refer to. Names may count otherwise.

B1: CD3B150 (antibody, V domains shown)
VH: EVQLLESGGGLVQPGGSLRLSCAASGFTFNTYAMNWVRQAPGKGLEWVARIRSKYNNYATYYADSVKGRFTISRDNSKNTLYLQMNSLRAEDTAVYYCAKHGNFGNSYVSWFAYWGQGTLVTVSS
VL: QTVVTQEPSLTVSPGGTVTLTCRSSTGAVTTSNYANWVQQKPGQAPRGLIGGTNKRAPGTPARFSGSLLGGKAALTLSGVQPEDEAEYYCALWYSNLWVFGGGTKLTVL
notes: also called CD3H142/CD3L66; CD3B50
B2: CD3B148 (antibody, V domains shown)
VH: B1 VH
VL: QSVLTQPPSVSAAPGQKVTISCRSSTGAVTTSNYANWVQQLPGTAPKGLIGGTNKRAPGIPDRFSGSKSGTSATLGITGLQTGDEADYYCALWYSNLWVFGGGTKLTVL
notes: also called CD3H142/CD3L64
B3: CD3B147 (antibody, V domains shown)
VH: B1 VH
VL: B1 VL with T2A, V80A
notes: also called CD3H142/CD3L63
B4: CD3B158 (antibody, V domains shown)
VH: EVQLVESGGGLVQPGGSLKLSCAASGFTFNTYAMNWVRQASGKGLEWVGRIRSKYNGYATYYAASVKGRFTISRDDSKNTAYLQMNSLKTEDTAVYYCTRHGNFGNSYVSWFAYWGQGTLVTVSS
VL: B1 VL
notes: also called CD3H144/CD3L66
B5: CD3B156 (antibody, V domains shown)
VH: B4 VH
VL: B2 VL
notes: also called CD3H144/CD3L64
B6: CD3B143 (antibody, V domains shown)
VH: B1 VH with L5V, D64A, N76D, T80S, R89K, A90T, K100R
VL: B1 VL with T2A, V80A
notes: also called CD3H141/CD3L63
B7: CD3B154 (antibody, V domains shown)
VH: B1 VH with A99V
VL: B1 VL
notes: also called CD3H143/CD3L66
B8: CD3B146 (antibody, V domains shown)
VH: B1 VH with L5V, D64A, N76D, T80S, R89K, A90T, K100R
VL: B1 VL
notes: also called CD3H141/CD3L66
B9: CD3B151 (antibody, V domains shown)
VH: B1 VH with A99V
VL: B1 VL with T2A, V80A
notes: also called CD3H143/CD3L63
B10: CD3B155 (antibody, V domains shown)
VH: B4 VH
VL: B1 VL with T2A, V80A
notes: also called CD3H144/CD3L63
B11: PS3B60 (bispecific antibody, human IgG4 S228P, kappa, lambda, F234A L235A)
heavy 1: not shown
light 1: not shown
heavy 2: EVQLVESGGGLVQPGGSLRLSCAASGFTFNTYAMNWVRQAPGKGLEWVARIRSKYNNYATYYAASVKGRFTISRDDSKNSLYLQMNSLKTEDTAVYYCARHGNFGNSYVSWFAYWGQGTLVTVSSASTKGPSVFPLAPCSRSTSESTAALGCLVKDYFPEPVTVSWNSGALTSGVHTFPAVLQSSGLYSLSSVVTVPSSSLGTKTYTCNVDHKPSNTKVDKRVESKYGPPCPPCPAPEAAGGPSVFLFPPKPKDTLMISRTPEVTCVVVDVSQEDPEVQFNWYVDGVEVHNAKTKPREEQFNSTYRVVSVLTVLHQDWLNGKEYKCKVSNKGLPSSIEKTISKAKGQPREPQVYTLPPSQEEMTKNQVSLTCLVKGFYPSDIAVEWESNGQPENNYKTTPPVLDSDGSFLLYSKLTVDKSRWQEGNVFSCSVMHEALHNHYTQKSLSLSLGK
light 2: QTVVTQEPSLTVSPGGTVTLTCRSSTGAVTTSNYANWVQQKPGQAPRGLIGGTNKRAPGTPARFSGSLLGGKAALTLSGVQPEDEAEYYCALWYSNLWVFGGGTKLTVLGQPKAAPSVTLFPPSSEELQANKATLVCLISDFYPGAVTVAWKADSSPVKAGVETTTPSKQSNNKYAASSYLSLTPEQWKSHRSYSCQVTHEGSTVEKTVAPTECS
notes: IgG4 PAA; PSMA arm first, then CD3 arm (F405L, R409K); also called PSMB344 x CD3B219
B12: PS3B61 (bispecific antibody, human IgG4 S228P, kappa, lambda, F234A L235A)
heavy 1: not shown
light 1: not shown
heavy 2: B11 heavy 2
light 2: B11 light 2
notes: IgG4 PAA; PSMA arm first, then CD3 arm (F405L, R409K); also called PSMB345 x CD3B219
B13: PS3B64 (bispecific antibody, human IgG4 S228P, kappa, lambda, F234A L235A)
heavy 1: not shown
light 1: not shown
heavy 2: B11 heavy 2
light 2: B11 light 2
notes: IgG4 PAA; PSMA arm first, then CD3 arm (F405L, R409K); also called PSMB349 x CD3B219
B14: PS3B74 (bispecific antibody, human IgG4 S228P, kappa, lambda, F234A L235A)
heavy 1: not shown
light 1: not shown
heavy 2: B11 heavy 2
light 2: B11 light 2
notes: IgG4 PAA; PSMA arm first, then CD3 arm (F405L, R409K); also called PSMB362 x CD3B219
B15: PS3B71 (bispecific antibody, human IgG4 S228P, kappa, lambda, F234A L235A)
heavy 1: not shown
light 1: not shown
heavy 2: B11 heavy 2
light 2: B11 light 2
notes: IgG4 PAA; PSMA arm first, then CD3 arm (F405L, R409K); also called PSMB359 x CD3B219
B16: PS3B72 (bispecific antibody, human IgG4 S228P, kappa, lambda, F234A L235A)
heavy 1: not shown
light 1: not shown
heavy 2: B11 heavy 2
light 2: B11 light 2
notes: IgG4 PAA; PSMA arm first, then CD3 arm (F405L, R409K); also called PSMB360 x CD3B219
B17: PS3B62 (bispecific antibody, human IgG4 S228P, kappa, lambda, F234A L235A)
heavy 1: not shown
light 1: not shown
heavy 2: B11 heavy 2
light 2: B11 light 2
notes: IgG4 PAA; PSMA arm first, then CD3 arm (F405L, R409K); also called PSMB346 x CD3B219
B18: PS3B70 (bispecific antibody, human IgG4 S228P, kappa, lambda, F234A L235A)
heavy 1: not shown
light 1: not shown
heavy 2: B11 heavy 2
light 2: B11 light 2
notes: IgG4 PAA; PSMA arm first, then CD3 arm (F405L, R409K); also called PSMB358 x CD3B219
B19: PS3B63 (bispecific antibody, human IgG4 S228P, kappa, lambda, F234A L235A)
heavy 1: not shown
light 1: not shown
heavy 2: B11 heavy 2
light 2: B11 light 2
notes: IgG4 PAA; PSMA arm first, then CD3 arm (F405L, R409K); also called PSMB347 x CD3B219
B20: PS3B75 (bispecific antibody, human IgG4 S228P, kappa, lambda, F234A L235A)
heavy 1: not shown
light 1: not shown
heavy 2: B11 heavy 2
light 2: B11 light 2
notes: IgG4 PAA; PSMA arm first, then CD3 arm (F405L, R409K); also called PSMB363 x CD3B219
B21: PS3B73 (bispecific antibody, human IgG4 S228P, kappa, lambda, F234A L235A)
heavy 1: not shown
light 1: not shown
heavy 2: B11 heavy 2
light 2: B11 light 2
notes: IgG4 PAA; PSMA arm first, then CD3 arm (F405L, R409K); also called PSMB361 x CD3B219
B22: CD3B124 (antibody, V domains shown)
VH: EVKLLESGGGLVQPKGSLKLSCAASGFTFNTYAMNWVRQAPGKGLEWVARIRSKYNNYATYYADSVKDRFTISRDDSQSILYLQMNNLKTEDTAMYYCVRHGNFGNSYVSWFAYWGQGTLVTVSA
VL: QAVVTQESALTTSPGETVTLTCRSSTGAVTTSNYANWVQEKPDHLFTGLIGGTNKRAPGVPARFSGSLIGDKAALTITGAQTEDEAIYFCALWYSNLWVFGGGTKLTVL
notes: also called chimeric SP34-derived antibody

Biological target: T1, human CD3ε on primary human T cells (human, UniProt P07766 23-207)
T1 construct: whole, on cells; Part of the TCR-CD3 complex on the cells; also called cell-surface CD3ε; CD3E
Assay: flow cytometry on primary human T cells (cell-surface CD3e), anti-human IgG (H+L) Alexa Fluor 647; one intermediate concentration of the titration is shown
Procedure: (§1) The resulting panel of anti-CD3 antibodies was tested for binding against cell-surface CD3ε on primary human T cells. To do this, binding of antibodies from expression supernatants was visualized using a polyclonal anti-human secondary antibody and analyzed by flow cytometry. Briefly, binding of anti-CD3 antibodies to cell-surface CD3E was assessed by flow cytometry using primary Human T lymphocytes purified by negative selection (Biological Specialty, Colmar, USA). Expression supernatants or purified antibodies were normalized to 10 μg/ml in media or FACS buffer (BD BioSciences), respectively. 2×10⁵ cells were aliquoted into wells of a 96 well round-bottomed plate (CoStar) for labeling. Antibodies in expression supernatant were added to cells and incubated for 45 min at 4° C. Following centrifugation at 1300 rpm for 3 min and removal of supernatant, 50 μL of anti-human IgG (H+L) Alexa Fluor 647 secondary antibody (Life technologies Inc.) was incubated with the cells at a final concentration of 10 μg/mL for 30 min at 4° C. away from direct light. Following washing and resuspension in 30 μL FACs buffer (BD BioSciences). Sample collection was performed on an Intellicyt HTFC system using ForeCyt software. Viable single cells were gated prior to analysis of binding using the green or red fixable live/dead dyes (Life Technologies Inc.) and forward/side scatter area and height parameters, respectively. Graphs were generated in GraphPad Prism version 5 using mean fluorescence intensity values.

T1 sequence (P07766 23-207): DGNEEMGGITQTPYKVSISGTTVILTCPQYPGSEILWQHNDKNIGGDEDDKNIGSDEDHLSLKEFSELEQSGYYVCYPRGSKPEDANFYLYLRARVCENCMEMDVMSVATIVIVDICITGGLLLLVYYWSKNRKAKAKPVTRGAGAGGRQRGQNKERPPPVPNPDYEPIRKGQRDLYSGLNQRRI

Row | Binder | binding result
1 | B1 | binds
2 | B2 | binds
3 | B3 | binds
4 | B4 | binds
5 | B5 | binds
6 | B6 | binds
7 | B7 | binds
8 | B8 | binds
9 | B9 | binds
10 | B10 | binds

Biological target: T2, human PSMA (prostate specific membrane antigen), full length (human, UniProt Q04609 1-750)
T2 construct: On LNCaP or C4-2B cells (endogenous) or transduced HEK293F cells; also called FOLH1_HUMAN; hPSMA
Assay: flow cytometry cell binding assay, bispecific antibody titrated on LNCaP cells (human PSMA)
Procedure: PSMA×CD3 bispecific antibodies were tested for binding to PSMA positive cell lines LNCAP, human PSMA-HEK, Chimpanzee-PSMA-HEK and Cynomolgous monkey PSMA-HEK. To assess the binding capabilities of the PSMA bispecific antibodies, the cell-binding assay was utilized (described previously). Briefly, PSMA expressing tumor cells are bound by bispecific antibodies at known concentrations and the bound antibody is detected by an anti-human kappa light chain PE conjugated detection reagent (Invitrogen). The Mean Fluorescents Intensity (MFI) is the measure of bound bispecific antibody. The MFI is converted to a relative EC₅₀. EC₅₀ is a commonly used dose-response curve, where the half maximal effective concentration or the EC₅₀ point is defined as the inflection point of the curve. EC₅₀ s were determined by measuring cell bound bispecific and known concentrations. […] The dose response curves were then diluted down to that of background or no bispecific binding. The inflection point of this curve reflects the EC₅₀ point. The calculated EC₅₀ is determined by taking the ug/ml amount of bispecific antibody at the EC₅₀ point and converting it to a molarity value based on the MW of the bispecific antibody. Bispecific antibodies were normalized for protein concentration and then incubated with the same number of cells expressing either human or cyno PSMA. The MFI at each concentration was collected by flow cytometry and plotted as a function of concentration. Data was transformed via log 10 and then plotted. Nonlinear regression of binding curves was done to determine EC₅₀ s. These relative values were used for ranking PSMA binding to target cells.
PSMA×CD3 bispecific antibodies were tested for binding to PSMA positive cell line, LNCAP, to PSMA negative cell line, PC3. To assess the binding capabilities of the PSMA bispecific antibodies, the cell-binding assay was utilized (described previously). Bispecific antibodies were normalized for protein concentration and then incubated with the same number of cells expressing either human or cyno PSMA. The MFI at each concentration was collected by flow cytometry and plotted as a function of concentration.

T2 sequence (Q04609 whole entry): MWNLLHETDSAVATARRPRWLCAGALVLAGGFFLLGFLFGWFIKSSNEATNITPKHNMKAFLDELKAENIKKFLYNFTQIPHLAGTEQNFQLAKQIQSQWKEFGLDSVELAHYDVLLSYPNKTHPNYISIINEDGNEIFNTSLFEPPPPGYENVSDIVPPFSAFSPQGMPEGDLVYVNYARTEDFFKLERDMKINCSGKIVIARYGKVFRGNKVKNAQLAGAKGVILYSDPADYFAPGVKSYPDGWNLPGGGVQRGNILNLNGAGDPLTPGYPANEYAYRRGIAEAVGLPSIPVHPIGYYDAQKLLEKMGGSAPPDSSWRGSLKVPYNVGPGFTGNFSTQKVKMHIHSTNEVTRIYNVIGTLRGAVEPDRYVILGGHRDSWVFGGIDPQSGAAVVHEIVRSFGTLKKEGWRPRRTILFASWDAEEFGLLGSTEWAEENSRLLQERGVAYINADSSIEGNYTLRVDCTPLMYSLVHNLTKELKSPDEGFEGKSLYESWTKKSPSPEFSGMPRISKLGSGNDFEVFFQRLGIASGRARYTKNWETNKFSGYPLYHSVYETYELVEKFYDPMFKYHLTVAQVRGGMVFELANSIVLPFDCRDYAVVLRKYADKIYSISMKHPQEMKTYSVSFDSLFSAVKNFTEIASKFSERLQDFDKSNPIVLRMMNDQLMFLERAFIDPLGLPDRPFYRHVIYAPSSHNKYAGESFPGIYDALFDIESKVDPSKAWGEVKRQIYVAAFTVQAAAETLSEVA

Row | Binder | binding result
11 | B11 | binds
12 | B12 | binds
13 | B13 | binds
14 | B14 | binds
15 | B15 | binds
16 | B16 | binds
17 | B17 | binds
18 | B18 | binds
19 | B19 | binds
20 | B20 | binds
21 | B21 | binds

Biological target: T3, cynomolgus CD3ε on primary cynomolgus CD4+ T cells (cynomolgus monkey, UniProt Q95LI5 22-198)
T3 construct: whole, on cells
Assay: flow cytometry on primary cynomolgus CD4+ T cells (CD3e), anti-human IgG (H+L) Alexa Fluor 647
Procedure: as §1
Binding analysis of the anti-CD3 hits to primary cynomolgus CD4⁺ T cells was then tested in order to assess the retention of cross-reactivity. Purified CD4⁺ T cells from the peripheral blood of cynomolgus monkeys (Zen Bio, Triangle Research Park, USA were used). Assay protocols were similar to those described above.

T3 sequence (Q95LI5 22-198): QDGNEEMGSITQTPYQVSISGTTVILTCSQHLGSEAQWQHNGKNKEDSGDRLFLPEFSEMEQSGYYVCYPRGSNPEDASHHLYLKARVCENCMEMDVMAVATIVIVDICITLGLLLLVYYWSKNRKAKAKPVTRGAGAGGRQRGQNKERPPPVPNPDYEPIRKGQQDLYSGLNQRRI

Row | Binder | binding result
22 | B1 | binds
23 | B3 | binds
24 | B4 | binds
25 | B5 | binds
26 | B6 | binds
27 | B7 | binds
28 | B8 | binds
29 | B9 | binds
30 | B10 | binds
31 | B22 | binds
